Data on one molecule can be found in article PMC3900414.

The series deals with T1, hPus1 (79-408) (Homo sapiens, UniProt Q9Y606 79-408).
T1 sequence: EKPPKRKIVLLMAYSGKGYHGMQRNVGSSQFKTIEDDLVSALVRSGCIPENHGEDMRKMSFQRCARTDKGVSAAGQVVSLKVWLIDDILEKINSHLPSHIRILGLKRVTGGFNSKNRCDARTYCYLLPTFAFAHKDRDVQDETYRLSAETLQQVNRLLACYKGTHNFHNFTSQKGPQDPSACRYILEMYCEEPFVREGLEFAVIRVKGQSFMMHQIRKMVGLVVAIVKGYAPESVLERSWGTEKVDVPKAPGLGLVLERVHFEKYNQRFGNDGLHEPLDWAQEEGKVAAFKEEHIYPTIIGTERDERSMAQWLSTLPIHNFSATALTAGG
The experiment in a line: size exclusion chromatography.

B1: minimal tRNASer (nt 26-65), unlabeled (structured_RNA)
RNA: GAUGGACUUGAAAUCCAUUGGCGCAGGUUCGAAUCCUGC
With B1, the binding result was “binds”.
